Data on four molecules can be found in patent US7179468 (CORNELL RESEARCH FOUNDATION, dated 2007).

Data set [1] addresses HIV-1 envelope glycoprotein (gp120/gp41 complex) of isolate 2076c1.3 (HIV-1). Kind of data set: cell-based or functional assay.
Data set [2] has as its target HIV-1 envelope glycoprotein (gp120/gp41 complex) of isolate NL4-3 (HIV-1). As to the kind of experiment: cell-based or functional assay.
Data set [3] deals with HIV-1 envelope glycoprotein (gp120/gp41 complex) of isolate 92US657 (HIV-1). Kind of data set: cell-based or functional assay.
The target of data set [4] is HIV-1 envelope glycoprotein (gp120/gp41 complex) of isolate HC4 (HIV-1). As to the kind of experiment: cell-based or functional assay.
Data set [5] has as its target HIV-1 envelope glycoprotein (gp120/gp41 complex) of isolate JRFL (HIV-1). As to the kind of experiment: cell-based or functional assay.
Data set [6] has as its target Q652L peptide (C52 peptide with leucine for glutamine at position 652) (HIV-1 (HXB2 strain)). As to the kind of experiment: sedimentation equilibrium, 4 C; self-association.
The target of data set [7] is HIV-1 envelope glycoprotein (gp120/gp41 complex) of isolate SF162 (HIV-1) (UniProt P19549). As to the kind of experiment: cell-based or functional assay.
For data set [8], the target named is HIV-1 envelope glycoprotein (gp120/gp41 complex) of isolate DH123 (HIV-1). As to the kind of experiment: cell-based or functional assay.
Data set [9] deals with the molecule itself. As to the kind of experiment: sedimentation equilibrium; self-association.

With “human antibody 2F5 isolated from an HIV-1-infected donor”, the EC50 IgG (ug/ml), neutralization of HIV-1 (p24 production in PHA-activated PBMC) in data set [1] is 38.1 µg/mL; in data set [2], 15.2 µg/mL; in data set [3] it was 57.8 µg/mL; in [4], 34.2 µg/mL; in data set [5], 4.37 µg/mL.
The molecule “Q652L peptide (C52 peptide with leucine for glutamine at position 652)” registered a molecular weight from sedimentation equilibrium (expected for a trimer 19,419) in data set [6] of 17700.
Turning to CD4-IgG2 (Fc fusion), the EC50 IgG (ug/ml), neutralization of HIV-1 (p24 production in PHA-activated PBMC) in data set [1] is more than 10 µg/mL; in data set [2], 0.21 µg/mL; in data set [3] it was more than 10 µg/mL; in data set [7], less than 0.062 µg/mL; in [4], more than 10 µg/mL; in data set [5], 0.51 µg/mL. For the same molecule, the EC50 IgG (ug/ml), neutralization of HIV-1 (p24 production in PHA-activated PBMC) in data set [8] worked out at 5.18 µg/mL.

B1: N656L peptide (C52 peptide with leucine for asparagine at position 656) (peptide)
chain: NHTTWLEWDREINNYTSLIHSLIEESQNQQEKLEQELLELDKWASLWNWFNI
notes: No unique oligomeric state; The apparent molecular weight depends on the concentration
For the molecule B1, the binding result in [9] is reported as “binds”.
